Measurements: publication doi:10.1101/2022.06.15.496202

Molecular target: Cas7c (D. vulgaris)
Experiment: cryo-EM structure

stoichiometry N: 7
Substance: Cas7c (natural protein)
